Laboratory results from article PMC11021452, “Exposing the molecular heterogeneity of glycosylated biotherapeutics” (Nature Communications, 2024).
Positions count from the first letter of the chain named. Names may count otherwise.

B1: enzymatically desialylated IL22-Fc (Fc fusion, UniProt Q9GZX6 34-179, looked up)
chain: APISSHCRLDKSNFQQPYITNRTFMLAKEASLADNNTDVRLIGEKLFHGVSMSERCYLMKQVLNFTLEEVLFPQSDRFQPYMQEVVPFLARLSNRLSTCHIEGDDLHIQRNVQKLKDTVKKLGESGEIKAIGELDLLFMSLRNACI
modifications: N-linked glycans with the sialic acids enzymatically removed
notes: IL22 cytokine of the IL22-Fc fusion UTTR1147A, same chain as m1; Same polypeptide as m1; differs only in the glycans; also called sialidase-treated IL22-Fc; source: IL22-Fc from cell culture fermentation, purified, then enzymatically desialylated
B2: IL22-Fc N21Q point mutant (Fc fusion, UniProt Q9GZX6 34-179, looked up)
chain: B1 chain with N21Q
modifications: N-linked glycans; the glycosylation site at N21 knocked out
notes: IL22 cytokine of the IL22-Fc fusion UTTR1147A with N21Q; Parent is m1; source: 10 day CHO cell culture fermentations, SP Sepharose Fast Flow ion exchange chromatography

Biological target: T1, IL-22 RA1 extracellular domain (ECD) (UniProt Q8N6P7 16-228)
T1 construct: Coated on the ELISA plate; also called IL22 receptor; IL22R1A
T1 sequence (looked up): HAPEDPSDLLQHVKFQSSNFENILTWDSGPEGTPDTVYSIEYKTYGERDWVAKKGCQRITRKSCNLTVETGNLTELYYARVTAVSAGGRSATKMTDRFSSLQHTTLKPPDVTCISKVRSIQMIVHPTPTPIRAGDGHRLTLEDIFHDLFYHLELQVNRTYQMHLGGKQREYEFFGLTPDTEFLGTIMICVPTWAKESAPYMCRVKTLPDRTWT
Test: ELISA; 96-well plate coated with IL-22 RA1 ECD; varying concentrations of IL22-Fc added in duplicate; bound IL22-Fc detected with goat anti-human IgG-HRP and TMB; potency by parallel curve program relative to the reference standard
Settings: both partners purified

Binder | fold change in binding against control IL22-Fc | fold change in potency (binding ELISA) relative to wild type
B1 | ~2 fold | 
B2 |  | 3.98 fold
